Data set [1] has as its system KK4A peptide (KKGSVVIVGRIVLSGK), central region of the NS4A cofactor from genotype 1a with lysine residues added for improved solubility.
For data set [2], the system named is internally quenched fluorogenic peptide (FRET substrate), Ac-DED(EDANS)EEαAbuψ[COO]ASK(DABCYL)-NH2.
Data set [3] concerns the target T1, internally quenched fluorogenic peptide (FRET substrate), Ac-DED(EDANS)EEαAbuψ[COO]ASK(DABCYL)-NH2.
T1 chain: DEDEEXASK

In data set [4] the target is T2, KK4A peptide (KKGSVVIVGRIVLSGK), central region of the NS4A cofactor from genotype 1a with lysine residues added for improved solubility.
T2 chain: KKGSVVIVGRIVLSGK

From patent publication US20110086006 come the findings set out here.

Where two headings read alike, the source gives them in different places.

The Km is the substrate concentration at which the rate is half of its maximum. As to “wild type HCV NS3 serine protease domain, genotype 1a”, the “kinetic parameters for the FRET substrate” value in data set [1] is recorded as “Although the NS4A peptide co-factor was from HCV genotype 1a, no discernable difference in the kinetic parameters was observed”. In data set [2], the Kcat amounted to 1.2 s⁻¹, the Kcat/Km was found to be 897000 M⁻¹ s⁻¹ and the Michaelis constant (Km) came to 1.3 µM.

B1: D168V mutant HCV NS3 serine protease domain, genotype 1b (protein)
chain: APITAYSQQTRGLLGCIITSLTGRDRNQVEGEVQVVSTATQSFLATCVNGVCWTVYHGAGSKTLAGPKGPITQMYTNVDQDLVGWQAPPGARSLTPCTCGSSDLYLVTRHADVIPVRRRGDSRGSLLSPRPVSYLKGSSGGPLLCPSGHAVGIFRAAVCTRGVAKAVVFVPVESMETTMRSHHHHHH
For B1, in data set [3], the Kcat is 0.6 s⁻¹, the Kcat/Km stood at 498000 M⁻¹ s⁻¹ and the Michaelis constant (Km) worked out at 1.2 µM.

B2: D168A mutant HCV NS3 serine protease domain, genotype 1b (protein)
chain: APITAYSQQTRGLLGCIITSLTGRDRNQVEGEVQVVSTATQSFLATCVNGVCWTVYHGAGSKTLAGPKGPITQMYTNVDQDLVGWQAPPGARSLTPCTCGSSDLYLVTRHADVIPVRRRGDSRGSLLSPRPVSYLKGSSGGPLLCPSGHAVGIFRAAVCTRGVAKAVAFVPVESMETTMRSHHHHHH
For B2, in data set [3], the Kcat was determined as 0.3 s⁻¹, the Kcat/Km turned out to be 150000 M⁻¹ s⁻¹ and the Km was determined as 2 µM.

B3: A156V mutant HCV NS3 serine protease domain, Con1 strain (protein)
chain: APITAYSQQTRGLLGCIITSLTGRDRNQVEGEVQVVSTATQSFLATCVNGVCWTVYHGAGSKTLAGPKGPITQMYTNVDQDLVGWQAPPGARSLTPCTCGSSDLYLVTRHADVIPVRRRGDSRGSLLSPRPVSYLKGSSGGPLLCPSGHAVGIFRVAVCTRGVAKAVDFVPVESMETTMRSHHHHHH
For orientation: kcat means the maximal rate divided by the concentration of active sites. By kcat/Km is commonly meant the second-order rate constant that governs catalysis at low substrate concentration. Take B3: in data set [3], the Michaelis constant (Km) came out at 2.6 µM, the kcat is 0.6 s⁻¹ and the specificity constant (kcat/Km) was 234000 M⁻¹ s⁻¹.

B4: A156T mutant HCV NS3 serine protease domain, Con1 strain (protein)
chain: APITAYSQQTRGLLGCIITSLTGRDRNQVEGEVQVVSTATQSFLATCVNGVCWTVYHGAGSKTLAGPKGPITQMYTNVDQDLVGWQAPPGARSLTPCTCGSSDLYLVTRHADVIPVRRRGDSRGSLLSPRPVSYLKGSSGGPLLCPSGHAVGIFRTAVCTRGVAKAVDFVPVESMETTMRSHHHHHH
In the case of B4, in data set [3], the Michaelis-Menten constant (Km) amounted to 1.3 µM, the turnover number (kcat) stood at 0.2 s⁻¹ and the kcat/Km came out at 136000 M⁻¹ s⁻¹.

B5: wild type HCV NS3 serine protease domain, genotype 1b (Con1), residues Ala1-Ser181 with a C-terminal hexa-histidine tag (protein)
chain: APITAYSQQTRGLLGCIITSLTGRDRNQVEGEVQVVSTATQSFLATCVNGVCWTVYHGAGSKTLAGPKGPITQMYTNVDQDLVGWQAPPGARSLTPCTCGSSDLYLVTRHADVIPVRRRGDSRGSLLSPRPVSYLKGSSGGPLLCPSGHAVGIFRAAVCTRGVAKAVDFVPVESMETTMRSHHHHHH
Take B5: in data set [4], the “kinetic parameters for the FRET substrate” value is recorded as “Although the NS4A peptide co-factor was from HCV genotype 1a, no discernable difference in the kinetic parameters was observed”. Further, in data set [3], the Kcat came out at 1 s⁻¹, the Kcat/Km was 947000 M⁻¹ s⁻¹, the Michaelis-Menten constant (Km) came to 1.1 µM and the catalytic constant (kcat) amounted to 1 s⁻¹. Moreover, in data set [3], the kcat/Km was found to be 947000 M⁻¹ s⁻¹.

B6: A156S mutant HCV NS3 serine protease domain, genotype 1b (protein)
chain: APITAYSQQTRGLLGCIITSLTGRDRNQVEGEVQVVSTATQSFLATCVNGVCWTVYHGAGSKTLAGPKGPITQMYTNVDQDLVGWQAPPGARSLTPCTCGSSDLYLVTRHADVIPVRRRGDSRGSLLSPRPVSYLKGSSGGPLLCPSGHAVGIFRSAVCTRGVAKAVDFVPVESMETTMRSHHHHHH
Consider B6, for which, in data set [3], the Kcat amounted to 0.6 s⁻¹, the Kcat/Km is 664000 M⁻¹ s⁻¹ and the Km came to 0.9 µM.
